Results as given in patent US20240117018A1.

Legend:
Assay in all cases: cell-based or functional assay
[1] = target: HIV-1 Env of pseudovirus Ce2060_G9 (HIV-1)
[2] = target: HIV-1 Env of pseudovirus CAAN5342.A2 (HIV-1)
[3] = target: HIV-1 Env of pseudovirus TRO.11 (HIV-1)
[4] = target: HIV-1 Env of pseudovirus 249M B10 (HIV-1)
[5] = target: HIV-1 Env of pseudovirus C1080.c03 (HIV-1)
[6] = target: HIV-1 Env of pseudovirus MS208.A1 (HIV-1)
[7] = target: HIV-1 Env of pseudovirus 62357_14_D3_4589 (HIV-1)
[8] = target: HIV-1 Env of pseudovirus ZM53M.PB12 (HIV-1)
[9] = target: HIV-1 Env of pseudovirus CNE21 (HIV-1)
[10] = target: HIV-1 Env of pseudovirus CNE19 (HIV-1)
[11] = target: HIV-1 Env of pseudovirus ZM135M.PL10a (HIV-1)
[12] = target: HIV-1 Env of pseudovirus X1193_c1 (HIV-1)
[13] = target: HIV-1 Env of pseudovirus Q461.e2 (HIV-1)
[14] = target: HIV-1 Env of pseudovirus Ce1086_B2 (HIV-1)
[15] = target: HIV-1 Env of pseudovirus 7030102001E5(Rev-) (HIV-1)
[16] = target: HIV-1 Env of pseudovirus X2088_c9 (HIV-1)
[17] = target: HIV-1 Env of pseudovirus ZM109F.PB4 (HIV-1)
[18] = target: HIV-1 Env of pseudovirus X1632_S2_B10 (HIV-1)
[19] = target: HIV-1 Env of pseudovirus 89-F1_2_25 (HIV-1)
[20] = target: HIV-1 Env of pseudovirus CNE5 (HIV-1)
[21] = target: HIV-1 Env of pseudovirus BF1266.431a (HIV-1)
[22] = target: HIV-1 Env of pseudovirus 3817.v2.c59 (HIV-1)
[23] = target: HIV-1 Env of pseudovirus 6811.v7.c18 (HIV-1)
[24] = target: HIV-1 Env of pseudovirus Q23.17 (HIV-1)
[25] = target: HIV-1 Env of pseudovirus HIV-16055-2.3 (HIV-1)
[26] = target: HIV-1 Env of pseudovirus Ce1176_A3 (HIV-1)
[27] = target: HIV-1 Env of pseudovirus Q769.d22 (HIV-1)
[28] = target: HIV-1 Env of pseudovirus HIV-0013095-2.11 (HIV-1)
[29] = target: HIV-1 Env of pseudovirus BJOX010000.06.2 (HIV-1)
[30] = target: HIV-1 Env of pseudovirus WEAU_d15_410_787 (HIV-1)
[31] = target: HIV-1 Env of pseudovirus SC422661.8 (HIV-1)
[32] = target: HIV-1 Env of pseudovirus CNE17 (HIV-1)
[33] = target: HIV-1 Env of pseudovirus AC10.0.29 (HIV-1)
[34] = target: HIV-1 Env of pseudovirus Q259.d2.17 (HIV-1)
[35] = target: HIV-1 Env of pseudovirus T251-18 (HIV-1)
[36] = target: HIV-1 Env of pseudovirus CNE58 (HIV-1)
[37] = target: HIV-1 Env of pseudovirus ZM247v1(Rev-) (HIV-1)
[38] = target: HIV-1 Env of pseudovirus 1394C9G1(Rev-) (HIV-1)

Substance: PGDM1400 (antibody)
- neutralization IC50 [1]: 1 ng/mL
- neutralization IC80 [1]: 7 ng/mL
- neutralization IC50 [2]: > 50 µg/mL
- neutralization IC80 [2]: > 50 µg/mL
- neutralization IC50 [3]: 0.283 µg/mL
- neutralization IC80 [3]: 1.38 µg/mL
- neutralization IC50 [4]: 0.039 µg/mL
- neutralization IC80 [4]: 0.786 µg/mL
- IC50 (Titer in TZM.bl cells) [5]: < 0.001 µg/mL
- IC80 (Titer in TZM.bl cells) [5]: < 0.001 µg/mL
- neutralization IC50 [6]: < 0.001 µg/mL
- neutralization IC80 [6]: 0.139 µg/mL
- neutralization IC50 [7]: > 50 µg/mL
- neutralization IC80 [7]: > 50 µg/mL
- neutralization IC50 [8]: 2 ng/mL
- neutralization IC80 [8]: 0.011 µg/mL
- neutralization IC50 [9]: < 0.001 µg/mL
- neutralization IC80 [9]: 0.002 µg/mL
- neutralization IC50 [10]: 1 ng/mL
- neutralization IC80 [10]: 7 ng/mL
- neutralization IC50 [11]: > 50 µg/mL
- neutralization IC80 [11]: > 50 µg/mL
- IC50 (Titer in TZM.bl cells) [12]: 0.219 µg/mL
- IC80 (Titer in TZM.bl cells) [12]: 0.781 µg/mL
- neutralization IC50 [13]: 0.089 µg/mL
- neutralization IC80 [13]: 0.572 µg/mL
- neutralization IC50 [14]: > 50 µg/mL
- neutralization IC80 [14]: > 50 µg/mL
- neutralization IC50 [15]: > 50000 ng/mL
- neutralization IC80 [15]: > 50 µg/mL
- IC50 (Titer in TZM.bl cells) [16]: > 50 µg/mL
- IC80 (Titer in TZM.bl cells) [16]: > 50 µg/mL
- neutralization IC50 [17]: 0.057 µg/mL
- neutralization IC80 [17]: 0.382 µg/mL
- IC50 (Titer in TZM.bl cells) [18]: 0.055 µg/mL
- IC80 (Titer in TZM.bl cells) [18]: 1.45 µg/mL
- IC50 (Titer in TZM.bl cells) [19]: 1 ng/mL
- IC80 (Titer in TZM.bl cells) [19]: 5 ng/mL
- IC50 (Titer in TZM.bl cells) [20]: < 0.001 µg/mL
- IC80 (Titer in TZM.bl cells) [20]: < 0.001 µg/mL
- neutralization IC50 [21]: 3 ng/mL
- neutralization IC80 [21]: 0.011 µg/mL
- IC50 (Titer in TZM.bl cells) [22]: > 50000 ng/mL
- IC80 (Titer in TZM.bl cells) [22]: > 50 µg/mL
- IC50 (Titer in TZM.bl cells) [23]: > 50000 ng/mL
- IC80 (Titer in TZM.bl cells) [23]: > 50 µg/mL
- neutralization IC50 [24]: < 1 ng/mL
- neutralization IC80 [24]: 0.003 µg/mL
- neutralization IC50 [25]: < 0.001 µg/mL
- neutralization IC80 [25]: 3 ng/mL
- neutralization IC50 [26]: 0.587 µg/mL
- neutralization IC80 [26]: 11.6 µg/mL
- neutralization IC50 [27]: 2 ng/mL
- neutralization IC80 [27]: 0.018 µg/mL
- neutralization IC50 [28]: 3 ng/mL
- neutralization IC80 [28]: 0.012 µg/mL
- IC50 (Titer in TZM.bl cells) [29]: 0.605 µg/mL
- IC80 (Titer in TZM.bl cells) [29]: 5.87 µg/mL
- neutralization IC50 [30]: 0.103 µg/mL
- neutralization IC80 [30]: 1.37 µg/mL
- neutralization IC50 [31]: 0.436 µg/mL
- neutralization IC80 [31]: 6.53 µg/mL
- neutralization IC50 [32]: 0.007 µg/mL
- neutralization IC80 [32]: 0.021 µg/mL
- neutralization IC50 [33]: 0.105 µg/mL
- neutralization IC80 [33]: 0.869 µg/mL
- neutralization IC50 [34]: 0.166 µg/mL
- neutralization IC80 [34]: > 50 µg/mL
- IC50 (Titer in TZM.bl cells) [35]: 8.62 µg/mL
- IC80 (Titer in TZM.bl cells) [35]: 43.1 µg/mL
- neutralization IC50 [36]: 0.004 µg/mL
- neutralization IC80 [36]: 0.014 µg/mL
- neutralization IC50 [37]: 0.019 µg/mL
- neutralization IC80 [37]: 0.051 µg/mL
- neutralization IC50 [38]: < 0.001 µg/mL
- neutralization IC80 [38]: 0.004 µg/mL

Substance: PGT128 (antibody)
- neutralization IC50 [1]: > 50000 ng/mL
- neutralization IC80 [1]: > 50000 ng/mL
- neutralization IC50 [2]: 0.514 µg/mL
- neutralization IC80 [2]: > 50 µg/mL
- neutralization IC50 [3]: 0.019 µg/mL
- neutralization IC80 [3]: 0.045 µg/mL
- neutralization IC50 [4]: 7.87 µg/mL
- neutralization IC80 [4]: > 50 µg/mL
- IC50 (Titer in TZM.bl cells) [5]: 0.283 µg/mL
- IC80 (Titer in TZM.bl cells) [5]: 2.06 µg/mL
- neutralization IC50 [6]: > 50 µg/mL
- neutralization IC80 [6]: > 50 µg/mL
- neutralization IC50 [7]: 1.14 µg/mL
- neutralization IC80 [7]: > 50 µg/mL
- neutralization IC50 [8]: > 50000 ng/mL
- neutralization IC80 [8]: > 50 µg/mL
- neutralization IC50 [9]: 0.01 µg/mL
- neutralization IC80 [9]: 0.026 µg/mL
- neutralization IC50 [10]: > 50000 ng/mL
- neutralization IC80 [10]: > 50000 ng/mL
- neutralization IC50 [11]: > 50 µg/mL
- neutralization IC80 [11]: > 50 µg/mL
- IC50 (Titer in TZM.bl cells) [12]: > 50 µg/mL
- IC80 (Titer in TZM.bl cells) [12]: > 50 µg/mL
- neutralization IC50 [13]: > 50 µg/mL
- neutralization IC80 [13]: > 50 µg/mL
- neutralization IC50 [14]: > 50 µg/mL
- neutralization IC80 [14]: > 50 µg/mL
- neutralization IC50 [15]: 7 ng/mL
- neutralization IC80 [15]: 0.022 µg/mL
- IC50 (Titer in TZM.bl cells) [16]: > 50 µg/mL
- IC80 (Titer in TZM.bl cells) [16]: > 50 µg/mL
- neutralization IC50 [17]: > 50 µg/mL
- neutralization IC80 [17]: > 50 µg/mL
- IC50 (Titer in TZM.bl cells) [18]: > 50 µg/mL
- IC80 (Titer in TZM.bl cells) [18]: > 50 µg/mL
- IC50 (Titer in TZM.bl cells) [19]: > 50000 ng/mL
- IC80 (Titer in TZM.bl cells) [19]: > 50000 ng/mL
- IC50 (Titer in TZM.bl cells) [20]: 0.018 µg/mL
- IC80 (Titer in TZM.bl cells) [20]: 0.253 µg/mL
- neutralization IC50 [21]: > 50000 ng/mL
- neutralization IC80 [21]: > 50 µg/mL
- IC50 (Titer in TZM.bl cells) [22]: 3 ng/mL
- IC80 (Titer in TZM.bl cells) [22]: 0.023 µg/mL
- IC50 (Titer in TZM.bl cells) [23]: 3 ng/mL
- IC80 (Titer in TZM.bl cells) [23]: 0.05 µg/mL
- neutralization IC50 [24]: 9 ng/mL
- neutralization IC80 [24]: 0.024 µg/mL
- neutralization IC50 [25]: > 50 µg/mL
- neutralization IC80 [25]: > 50000 ng/mL
- neutralization IC50 [26]: 0.009 µg/mL
- neutralization IC80 [26]: 0.026 µg/mL
- neutralization IC50 [27]: > 50000 ng/mL
- neutralization IC80 [27]: > 50 µg/mL
- neutralization IC50 [28]: > 50000 ng/mL
- neutralization IC80 [28]: > 50 µg/mL
- IC50 (Titer in TZM.bl cells) [29]: 4.82 µg/mL
- IC80 (Titer in TZM.bl cells) [29]: > 50 µg/mL
- neutralization IC50 [30]: 0.032 µg/mL
- neutralization IC80 [30]: 0.153 µg/mL
- neutralization IC50 [31]: 1.08 µg/mL
- neutralization IC80 [31]: 18.4 µg/mL
- neutralization IC50 [32]: 0.432 µg/mL
- neutralization IC80 [32]: 1.99 µg/mL
- neutralization IC50 [33]: 0.008 µg/mL
- neutralization IC80 [33]: 0.018 µg/mL
- neutralization IC50 [34]: > 50 µg/mL
- neutralization IC80 [34]: > 50 µg/mL
- IC50 (Titer in TZM.bl cells) [35]: > 50 µg/mL
- IC80 (Titer in TZM.bl cells) [35]: > 50 µg/mL
- neutralization IC50 [36]: 13.8 µg/mL
- neutralization IC80 [36]: > 50 µg/mL
- neutralization IC50 [37]: 0.021 µg/mL
- neutralization IC80 [37]: 0.081 µg/mL
- neutralization IC50 [38]: 0.011 µg/mL
- neutralization IC80 [38]: 0.034 µg/mL
